Among the data in the RNAGym collection of RNA variant scans (doi:10.1093/molbev/msab373) are reverse-splicing fitness values, retold here.

B1: Azoarcus group I ribozyme (parent)
chain: GUGCCUUGCGCCGGGAAACCACGCAAGGGAUGGUGUCAAAUUCGGCGAAACCUAAGCGCCCGCCCGGGCGUAUGGCAACGCCGAGCCAAGCUUCGGCGCCUGCGCCGAUGAAGGUGUAGAGACUAGACGGCACCCACCUAAGGCAAACGCUAUGGUGAAGGCAUAGUCCAGGGAGUGGCGAAAGUCACACAAACCGG

In the data set the parent is B1. Put plainly: reverse-splicing fitness (ratio to wild type); higher = more active; in vitro selection; Mg2+ level not given. The procedure, abridged:
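An in vitro group I ribozyme library with randomized positions was T7-transcribed and gel-purified. In triplicate, 10 pmol RNA in EPPS pH 7.5 was reacted with 50 pmoles of a 30-nt RNA substrate for 1 h at 37 °C across several added MgCl2 levels (1–48 mM), then stopped with EDTA. Products were reverse transcribed from a substrate-complementary primer, PCR-amplified and sequenced (HiSeq 4000). Fitness is a variant's read proportion after selection over that before, normalised to wild type.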
Turning to C82G A111G A120C C150G, the reverse-splicing fitness came out at 0.0105.

For C82G A111G A120C C150A, the reverse-splicing fitness is 0.0154.

C82G A111G A120C C150U: the reverse-splicing fitness was determined as 0.0417.

Take C82G A111C C150G C169A U176G: the reverse-splicing fitness came to 0.00647.

As for C82G A111C C150G C169A U176A, the reverse-splicing fitness came to 0.00955.

For C82G A111C C150G C169A U176C, the reverse-splicing fitness stood at 0.0108.

With C82G A111G A120C A145C C150G C169U U176G, the reverse-splicing fitness was found to be 0.00551.

For the variant C82G A111G A120C A145C C150G C169U U176C, the reverse-splicing fitness came out at 0.0131.

Consider C82G A111G A120C A145C C150G C169U U176A, for which the reverse-splicing fitness came out at 0.00714.

Turning to C82G A111G A120G A145C C150A C169G, the reverse-splicing fitness was 0.00843.

Turning to C82G A111G A120G A145C C150A C169A, the reverse-splicing fitness was determined as 0.00854.

With C82G A111G A120G A145C C150A C169U, the reverse-splicing fitness was determined as 0.0075.

As for C82G A111C C169U, the reverse-splicing fitness turned out to be 0.0148.

As to C82G A111C C169A, the reverse-splicing fitness turned out to be 0.00871.

C82G A111C C169G: the reverse-splicing fitness was 0.00928.

C82G A111G A120C A145C C169A U176C: the reverse-splicing fitness came out at 0.0106.

Take C82G A111G A120C A145C C169A U176A: the reverse-splicing fitness is 0.0154.

Take C82G A111G A120C A145C C169A U176G: the reverse-splicing fitness turned out to be 0.00459.

For C82G A111G A120C A145G C169G U176A, the reverse-splicing fitness came to 0.0158.

Turning to C82G A111G A120C A145G C169G U176G, the reverse-splicing fitness turned out to be 0.00476.

With C82G A111G A120C A145G C169G U176C, the reverse-splicing fitness is 0.0188.

In the case of C82G A111C C150U, the reverse-splicing fitness was 0.143.

With C82G A111C C150G, the reverse-splicing fitness is 0.0174.

Regarding C82G A111G A120C C150G C169A, the reverse-splicing fitness stood at 0.00976.

On to C82G A111G A120C C150G C169G, for which the reverse-splicing fitness was found to be 0.008.

For the variant C82G A111G A120C C150G C169U, the reverse-splicing fitness came to 0.0104.

Take C82G A111G A120C A145C C150U U176A: the reverse-splicing fitness was 0.0141.

Turning to C82G A111G A120C A145C C150U U176G, the reverse-splicing fitness was determined as 0.00724.

C82G A111G A120C A145C C150U U176C: the reverse-splicing fitness turned out to be 0.0167.

In the case of C82G A111C C150U C169G, the reverse-splicing fitness stood at 0.00815.

Turning to C82G A111C C150U C169U, the reverse-splicing fitness was found to be 0.0125.

As to C82G A111C C150U C169A, the reverse-splicing fitness is 0.0113.

Take C82G A111G A120C C150A C169A: the reverse-splicing fitness came out at 0.0106.

For the variant C82G A111G A120C C150A C169U, the reverse-splicing fitness was determined as 0.0123.

As to C82G A111G A120C C150A C169G, the reverse-splicing fitness amounted to 0.00943.

Regarding C82G A111C C150G C169U U176G, the reverse-splicing fitness was determined as 0.00599.

Consider C82G A111C C150G C169U U176A, for which the reverse-splicing fitness stood at 0.00763.

As for C82G A111C C150G C169U U176C, the reverse-splicing fitness came to 0.0127.

As for C82G A111G A120C A145G C150G C169U U176C, the reverse-splicing fitness was 0.0142.

As for C82G A111G A120C A145G C150G C169U U176G, the reverse-splicing fitness was 0.00784.

As to C82G A111G A120C A145G C150G C169U U176A, the reverse-splicing fitness is 0.0118.

Consider C82G A111G A120C A145G U176G, for which the reverse-splicing fitness was determined as 0.00851.

Turning to C82G A111G A120C A145G U176A, the reverse-splicing fitness was 0.0236.

For the variant C82G A111G A120C A145G U176C, the reverse-splicing fitness was determined as 0.0418.

As for C82G A111C C150U C169U U176A, the reverse-splicing fitness is 0.015.

For the variant C82G A111C C150U C169U U176G, the reverse-splicing fitness amounted to 0.00854.

Take C82G A111C C150U C169U U176C: the reverse-splicing fitness turned out to be 0.0142.

With C82G A111G A120C A145C C150G C169A U176C, the reverse-splicing fitness is 0.0103.

On to C82G A111G A120C A145C C150G C169A U176A, for which the reverse-splicing fitness was found to be 0.0108.

As for C82G A111G A120C A145C C150G C169A U176G, the reverse-splicing fitness is 0.00627.

As to C82G A111C C150A U176G, the reverse-splicing fitness was 0.0116.

Turning to C82G A111C C150A U176C, the reverse-splicing fitness is 0.0293.

Consider C82G A111C C150A U176A, for which the reverse-splicing fitness came out at 0.0223.

With C82G A111G A120C A145G C169A U176C, the reverse-splicing fitness was 0.0188.

For C82G A111G A120C A145G C169A U176G, the reverse-splicing fitness amounted to 0.00503.

As for C82G A111G A120C A145G C169A U176A, the reverse-splicing fitness was found to be 0.0151.

For C82G A111G A120C C169U U176C, the reverse-splicing fitness is 0.0134.

Regarding C82G A111G A120C C169U U176A, the reverse-splicing fitness came to 0.0138.

Regarding C82G A111G A120C C169U U176G, the reverse-splicing fitness is 0.00596.

As to C82G A111G A120C A145C U176C, the reverse-splicing fitness turned out to be 0.035.

On to C82G A111G A120C A145C U176A, for which the reverse-splicing fitness was 0.0266.

For C82G A111G A120C A145C U176G, the reverse-splicing fitness was 0.00938.

As for C82G A111G A120C A145U C169U, the reverse-splicing fitness is 0.0157.

In the case of C82G A111G A120C A145U C169A, the reverse-splicing fitness was determined as 0.00712.

In the case of C82G A111G A120C A145U C169G, the reverse-splicing fitness turned out to be 0.00799.

Regarding C82G A111C C150U U176G, the reverse-splicing fitness turned out to be 0.0217.

As for C82G A111C C150U U176A, the reverse-splicing fitness was found to be 0.0699.

Consider C82G A111C C150U U176C, for which the reverse-splicing fitness was 0.0801.

For C82G A111G A120C A145U C150U C169U U176C, the reverse-splicing fitness turned out to be 0.0143.

For the variant C82G A111G A120C A145U C150U C169U U176A, the reverse-splicing fitness turned out to be 0.0143.

On to C82G A111G A120C A145U C150U C169U U176G, for which the reverse-splicing fitness came out at 0.00591.

Regarding C82G A111G A120C A145C C150G U176G, the reverse-splicing fitness is 0.0035.

Turning to C82G A111G A120C A145C C150G U176C, the reverse-splicing fitness was found to be 0.00886.

In the case of C82G A111G A120C A145C C150G U176A, the reverse-splicing fitness amounted to 0.00574.

In the case of C82G A111G A120C C150G C169U U176A, the reverse-splicing fitness turned out to be 0.00806.

Turning to C82G A111G A120C C150G C169U U176G, the reverse-splicing fitness came out at 0.0076.

For the variant C82G A111G A120C C150G C169U U176C, the reverse-splicing fitness stood at 0.0135.

For C82G A111G A120G A145C C150A C169G U176C, the reverse-splicing fitness was determined as 0.0187.

For the variant C82G A111G A120G A145C C150A C169G U176G, the reverse-splicing fitness turned out to be 0.00603.

For the variant C82G A111G A120G A145C C150A C169G U176A, the reverse-splicing fitness is 0.0249.

Turning to C82G A111G A120C A145G C150A C169A U176C, the reverse-splicing fitness is 0.0227.

As for C82G A111G A120C A145G C150A C169A U176A, the reverse-splicing fitness amounted to 0.0208.

As to C82G A111G A120C A145G C150A C169A U176G, the reverse-splicing fitness was 0.00804.
